According to publication PMC6813122, “Characterization of a highly stable α-galactosidase from thermophilic Rasamsonia emersonii heterologously expressed in a modified Pichia pastoris expression system” (Microbial Cell Factories, 2019):

B1: ReGal2 (Rasamsonia emersonii CBS 393.64) (protein)
chain: LDNGLAITPQMGWNTWNSFGCSLNETVILDAAEKLVSLGFKDLGYEYVVLDDCWSAGRNASGYLVPDPAKFPNGIDGLAEKIHALGLKIGIYSSAGTMTCARYAGSLGYEEKDAALWASWGIDYLKYDNCYNQGQEGTPKLSYDRYNAMGQALNKTGRPILYSLCNWGVDGPWNFASTIANSWRTSGDLLNTWDRDDANCPCSELEGLDCKTPGYKCSILNVINKAVYYPSKAFPGAWNDLDMLQVGNGGLTDDEAVAHMSLWAAFKSPLLMTNVLSNIDPPTLSILQNPAVLAVSQDPVGSSVNRIWRYYVDDVDANGYGEIQLFSGGLAGGDQLVLLLNAGSKDRTMNATLEDIFWEDGPGGTASQVQQSWDVYDLWANRMSNETAAAIINAANSTGSAAPAAPINMTALGGAKHVYSQVPPSDSKALMGTKVGSVQPSGTVKAFVKAHGVAMLRLRQQSQKKDEL

Columns and labels:
[1] = target: ReGal2, GH27 α-galactosidase from Rasamsonia emersonii (Rasamsonia emersonii); test: SEC; gel filtration of purified ReGal2, Superdex 200 Increase 10/300 GL, 10 mM Tris-HCl pH 8.0 plus 100 mM NaCl, calibrated with molecular weight standards; self-association, oligomeric state of the native enzyme
purified protein = substrate: O=[N+]([O-])c1ccc(O[C@H]2O[C@H](CO)[C@H](O)[C@H](O)[C@H]2O)cc1; test: purified protein; conditions: 80 °C, 20 mM HAc-NaAc buffer pH 4.8 (general assay buffer), 0.25-2.0 mM pNPGal

Row | Molecule | stoichiometry N [1] | Km (purified protein) [µM] | kcat (purified protein) [s⁻¹] | kcat/Km (purified protein) [M⁻¹ s⁻¹]
1 | ReGal2, GH27 α-galactosidase from Rasamsonia emersonii (enzyme) | 6 |  |  | 
2 | B1 |  | 190 ± 40 | 623 | 3.28e+06
